The DeepSol protein solubility set

Experiment: soluble on expression in E. coli; label from the status in PepcDB or PDB records
With “MGSDKIHHHHHHMSTVIDSNIFNTLVSNTFYSCPLGGAIYDTEGNLIDLNKAMFAHFSLADKHDFIIEHLFNNIVLTDSLKSSLRKGDAIICEEPVTFKVEPIYTDEQGLSGYTLWLTQQGEKETDRENKLLMGQLNESRILMRQALEDGKLAAYSFSFDRFSTCDKRHCNRCFQFYGTTNTLLDKNRFICRALSSVRKPEDSLDFFYLFNKIRDEKLSSHNVTFHLRNQDGTYKMYEISGKSMDIDESGTPHVIIGSIIEKENDELAIADHQKSKDLSLLKSTFLANMTHEIRTPLNAIVGFSDMLGLEDDPEMREQYISMIKENNTALLELINDTLEMSRIESNTINWSYEDVNPLAIMHDVYEYASPRISKNVRLILDDSPNVSLHTDKHKLMLILKKLLSNALRYTEKGEIHFGYQSLYPVSVQFYVSDTGNGIPKDKLGHIFERFVQLNEFQPGTGLGLSICKGLVTAMGGTIWVNSEEGKGSTFSFKLPITPPDTIS” the “soluble on expression in E. coli” value was “not soluble”. With “MSLDVISELVKKNGSKILLIVLDGLGGLPVKEGKTELELAKTPNLDKLVKNSATGLHIPVDWGITPGSGPGHLGLFGYDPIKYQIGRGILEALGLGIDVKDTDIAVRGNYATVEYRNGKPIVVDRRAGRIPTEENKRITAKLQEAIKEIDGVQVIIKPGMEHRLAIVFRFPEKLSPGSDAINDTDPQQVGKEPLEPKGENPNAEKVAEVVRKFIQRATEILRNEPKANYILLRGFSQKPDIPTMEERFGVKPCCIAVYPMYKGLASLVGMDVIEFEGSTIQDEIDTLKKVWNEYDYFFVHIKKTDSYGEDGNYEGKVSVIEDFDAHLPQFLELKPDVLAITGDHSTPSILKGHSWHPVPLLIHSPYVLGGTSERFTERECLKGELGIIPAVKITQLLLANALRLKKYGAEGHHHHHH” the “soluble on expression in E. coli” value was “soluble”. For “MPTPYHLNMAAPLRIQLTPEEDRLLLELSLDPRTHKKTRLWAMMVRLAAEGWTAPKIAQHFHKDRTTVYLVLRRFLREGLQGLAYRKPPGAPRKFTPEMAAFVEERLAEDRVWTAPQLAAALAERFGVRLAPKVVARHLRAMGYVWRRTRYVPLGKPTEEEVKAFAEEEEEAKRGRRRG”, the “soluble on expression in E. coli” value was “soluble”. In the case of “MSLDNQLINSIIEKYQFSKKQIEAVLTLLEEKNTVPFIARYRKEQTGGLDEVQIKQIDDEYQYMVNLQKRKEEVIKNIEQQGLLTEELKKDILKQNKLQRVEDLYRPFKQKKKTRATEAKRKGLEPLAIWMKARKHEVSIEEKAQQFINEEVQSVEDAIKGAQDIIAEQISDNPKYRTKILKDMYHQGVLTTSKKKNAEDEKGIFEMYYAYSEPIKRIANHRVLAVNRGEKEKVLSVKFEFDTTSVEDFIARQEINHNNVNRSYILEAIKDSLKRLIVPSIEREIHADLTEKAENHAIDVFSENLRNLLLQPPMKGKQILGVDPAFRTGCKLAVINPFGTFIAKGVIYPHPPVSKKEAAEKDFVQMVKAYDVQLIAIGNGTASRETEQFVADLIKKHQLPVQFIIVNEAGASVYSASEIARDEFPDFQVEERNAVSIGRHVQDPLSELVKIDPKSIGVGQYQHDFFQEGHHHHHH”, the “soluble on expression in E. coli” value is reported as “soluble”. In the case of “GPGSMASHAEGRLLRRSVPYVESWIAELTPKPVAPAAGAAPAPKGKAKGGTASTGTENATPMSRCCFAVGKVLEVSRHPESEKLYIEKIDLGAELNMLSNNEPRTILSGLQEFVKEEDFVNRLVLVIANLEPRKIGGIPSAGMVLCASTGEDPHDPASAGQGERKVVLLDIPEGTAVGERVVFEGHDMPYEPVLKKKLAKNFEEVMKDVRSSADGEVCWQGKPFQTSAGVIKASLCNARIS”, the “soluble on expression in E. coli” value is reported as “soluble”. For “LSLQSEIDSLCAVSHELLHLGLDGEPIYSDRFRQLNTDVYHRCEHLFGSHGRTLEEEASLCIALLTGYNATIYNHGDKEDKIQSVLNRSWDLLDTLPVSLLKCRLLVACYAEVFD”, the “soluble on expression in E. coli” value was “not soluble”. With “MSWYTSCPKMLLGATAVAVPLGATVFRRESEKSENLLKIKKAKELVETTMAIQGIPGLSIAVSLDGKMVWKSGFGYANLESFAKCTGDSVMRIASISKPITATLAAQCVENGTLDLDEDIRKYLPEFPAKKFKNEDVKITMRQLLSHSAGIRHYATEKKKSETHEDPSNNNTETPEFLSNKPYNSSLDALAIFKNDDLVEKPGSKFSYTTYGLTLAGAVLEKCSGKTYRQLANQLFSDLGMRNTQLDTKEKIVPGRASYYQRNSKNILENCPEVDCSNKFAGGGIISNTTDLLIIANAILHSILSDSKNCLLQRETIRKFLEKQVPVDSKTSTGLGWFLVDGKDLKSIDGNISNSSFFYHTGAAVGASSVLLVNTSSGVCVAILCNLQNTTVLKLGRDIGDLFHGEI” the “soluble on expression in E. coli” value was “soluble”. In the case of “MASGENLAPRDAKVISVILRSLGIEECEPKVIIQLLEFAYRYTTDVLEDALLFAKHTGRTHITTSDVKLALQTKVGRHFVPPPPRQYLSEISTMVNSKPLTIPDGENLIRVPPSSSALLNLDYEVLRKDSDKKRRIY”, the “soluble on expression in E. coli” value is reported as “not soluble”. For “MSLTVKMGFIGFGKSANRYHLPYVMIRETLEVKTIFDLHVNEKAAAPFKEKGVNFTADLNELLTDPEIELITICTPAHTHYDLAKQAILAGKSVIVEKPFCDTLEHAEELFALGQEKGVVVMPYQNRRFDGDYLAMKQVVEQGFLGEINEVETHIDYYRPGSITEQGPKENGSFYGLGIHLMDRMIALFGRPDQVTYDIRNNEVSEAVDNYFDVDLHYGSKLKVKVKTNHSVASPYPRFIVHGSNGSFIKYGEDQQENDLKAGIMPDAPGFGEDSPMYYGEVTYRNGNGDWIKKQIKTPVGDYGRYYDAVYETLKNGAPQLVTKEQALTNIEILEAGFLNPSPSVYHLKENEGHHHHHH”, the “soluble on expression in E. coli” value was “soluble”. In the case of “MDHLKHLQQLQNIERIVLSGIVLANHKIEEVHSVLEPSDFYYPPNGLFFEIALKLHEEDCPIDENFIRQKMPKDKQIKEEDLVAIFAASPIDNIEAYVEEIKNASIKRKLFGLANTIREQAHH”, the “soluble on expression in E. coli” value is reported as “soluble”. For “MKLMAQLGKLLKEQKYDRQLRLWGDHGQEALESAHVCLINATATGTEILKNLVLPGIGSFTIIDGNQVSGEDAGNNFFLQRSSIGKNRAEAAMEFLQELNSDVSGSFVEESPENLLDNDPSFFCRFTVVVATQLPESTSLRLADVLWNSQIPLLICRTYGLVGYMRIIIKEHPVIESHPDNALEDLRLDKPFPELREHFQSYDLDHMEKKDHSHTPWIVIIAKYLAQWYSETNGRIPKTYKEKEDFRDLIRQGILKNENGAPEDEENFEEAIKNVNTALNTTQIPSSIEDIFNDDRCINITKQTPSFWILARALKEFVAKEGQGNLPVRGTIPDMIADSGKYIKLQNVYREKAKKDAAAVGNHVAKLLQSIGQAPESISEKELKLLCSNSAFLRVVRCRSLAEEYGLDTINKDEIISSMDNPDNEIVLYLMLRAVDRFHKQQGRYPGVSNYQVEEDIGKLKSCLTGFLQEYGLSVMVKDDYVHEFCRYGAAEPHTIAAFLGGAAAQEVIKIITKQFVIFNNTYIYSGMSQTSATFQL”, the “soluble on expression in E. coli” value was “soluble”. With “MWRELWRVVEKSDIIVQIVDARNPLLFRSKDLDDYVKEVDPAKQILLLVNKADLLKPEQQASWREYFEKENIKVIFWSAIDEVLDPIDEDAVETSNPSTSTHMFVTNKDELIAKFKELGHVSDEPSAKPVMVGMVGYPNVGKSSTINKLAGGKKVSVSATPGKTRHFQTIHIDSQLCLCDCPGLVMPSFSFGRSEMFLNGILPVDQMRDHFGPTSLLLSRVPVHVIEATYSIMLPEMQSPSAINLLNSLAFMRGFMASSGIPDCSRAARLMFKDVVSGKLIWAAAPPGVEQEEFDRISYPDKKTRDIGRVQMEKLAKLQLLEGDELKGSQFDSQHFVGSIGVAHVRDSKALPQTLGTVIPTAPTENNGKKHYKGKKDKLRRIYNE” the “soluble on expression in E. coli” value was “not soluble”. In the case of “MGSDKIHHHHHHMFLSIGTLPEDSRFHDAMVYFDMAHLSGTDRSQMLLLPEVVDDYVGPDNPVRFIEAFIDGLDLQASGFIRVEPKLTSRPGYDPADLLKLYLYGYLNRVRSSRRLEAETHRNIEVIWLLRRLTPDHKTIANFRRVNHAAFRQVFREFVILCRQLDLFGRELLAVDGTRIKAVNNKERNFTRAALTKFIREADERLTEYMKRLDNGDAQEENTGGGGPRAKNLAEKITAIKGKRDRHKALLDELDRTGEDQISLTDMDSRAMARMTKVGVGYNIQLAVDVKHKLIAEQEVSNQVVDMGLLTQATQAAMDNLGVEQIEVVADRGYFKVEDIEACEKAGITAYVPKPLRGAAVREGFFSKDEFRYNAEKDVYVCPAGEHLSPRYEKKTRDLKLVEYCNREACRSCDLKAHCTHGYRRVGRVENEAVLDRMAARLAARPEVLDQRRETVEHPFGTIKQWMYQGSFLMRRLENVQGEFSLTALAYNIRRAITLVGVAGLIGAVRA”, the “soluble on expression in E. coli” value is reported as “not soluble”. For “MGSDKIHHHHHHMERPILGKYIIKGKIILETGLRIGGQELGVNIGGIDNPVIRNPLTGEPYIPGSSVKGKMRSLMERLLNLDISGNKVRRHECEERECKVCRVFGSTSKEGNNIPSRLLVRDAFLTEDSKTKLLSMETDLPYTEWKTENALDRVTCKADPRSFERIPAGAEFEFEIIYTAENEKHIKEDLENIATALELLEDDYLGGNGSRGYGKVKFSIEKVIFKSADYYKGEGTPVEKEVKGGVEGFKKAIPEIVKG”, the “soluble on expression in E. coli” value was “not soluble”. For “MYQKFKGGDLMIHGGDIYTEGVFKGRELLDYSSNINPLGIPKSFLNNIDEGIKNLGVYPDVNYRRLNKSIENYLKLKDIGIVLGNGASEIIELSISLFEKILIIVPSYAEYEINAKKHGVSVVFSYLDENMCIDYEDIISKIDDVDSVIIGNPNNPNGGLINKEKFIHVLKLAEEKKKTIIIDEAFIEFTGDPSSSFVGEIKNYSCLFIIRAMTKFFAMPGIRFGYGITNNKEIAAKIKAKQNPWNINCFAEMAAINCLKDTNYIEESLLWIKKERKRFIEELNKIGFIKRVFSPHANFVLCRLENISGEKLYDSLLKEDIVIRRCCNFIGLDDSFVRFAIKDEKKNTKFLRALKGVENNL”, the “soluble on expression in E. coli” value was “soluble”. With “MRIHNDKNDHGDNNEIMDYILEKYKPLVRKKTNALYLIGGENDDLIQEGMIGLFKAVRDYKSDKEASFYSFAQLCITRQLSSALEASNRKKHMPLNTYISFSQSDSDGTEFEEMLQDDIASPEQLLIEKEKFKEFKEQLWNKLSNMEKKVLQLYLEGNNYTSIAHMLGKSDKSIDNALSRIRQKLKRK” the “soluble on expression in E. coli” value was “not soluble”. With “MGHHHHHHSHMRLTLLCCTWREERMGEEGSELPVCASCGQRIYDGQYLQALNADWHADCFRCCDCSASLSHQYYEKDGQLFCKKDYWARYGESCHGCSEQITKGLVMVAGELKYHPECFICLTCGTFIGDGDTYTLVEHSKLYCGHCYYQTVVTPVIEQILPDSPGSHLPHTVTLVSIPASSHGKRGLSVSIDPPHGPPGCGTEHSHTVRVQGVDPGCMSPDVKNSIHVGDRILEINGTPIRNVPLDEIDLLIQETSRLLQLTLEHDPHDTLGHGLGPETSPLSSPAYTPSGEAGSSARQKPVLRSCSIDRSPGAGSLGSPASQRKDLGRSESLRVVCRPHRIFRPSDLIHGEVLGKGCFGQAIKVTHRETGEVMVMKELIRFDEETQRTFLKEVKVMRCLEHPNVLKFIGVLYKDKRLNFITEYIKGGTLRGIIKSMDSQYPWSQRVSFAKDIASGMAYLHSMNIIHRDLNSHNCLVRENKNVVVADFGLARLMVDEKTQPEGLRSL” the “soluble on expression in E. coli” value was “soluble”. With “MGLCVSVNRNEYVSSSTTAKIVTINGDLREYDVPVLASQVLESESTSSSSSSSSSSYFLCNSDSLYYDDFIPAIESDEILQANQIYFVLPISKRQYRLSASDMAALAVKASVAIEKAAGKKNRRRRSGRISPVVTLNQANDNRIAAVNNRIGGEATNMMMQKGKLPNRTTPFKDTNGYSRSGSVRKLKRYTSGRAKLAVRSFRLRLSTIYEGSSFN” the “soluble on expression in E. coli” value was “not soluble”. For “AHHHHHHGSKIAIPTNGGGREDTVAPLFARAPAFYIAEVDEKGNIISEKVIQNPAATAGRGAGPIAVQMLINEGVDTIVAPQVVPNALGAIQAAGIRVYYVTPGTPVEEAIKVATTGQGGQLPSLPQIPTPVTPAPAMYGPVYPPFGWGRGWGKGRGWGRGWGSILGYCPWTGMPSRRALRWYYGWW”, the “soluble on expression in E. coli” value was “not soluble”. With “MITSYEATVVTTDDIVHEVNLEGKRIGYVIKTENKETPFTVVDIDGPSGNVKTLNDGVKKMCLVHIGKNLPAEKKAEFLATLIAMKLKGEI” the “soluble on expression in E. coli” value was “not soluble”.
